Legend:
[1] = biological target: HIV-1 Env (HXB2 strain) homotrimer with L544S in gp41 (HIV-1 (HXB2 strain))
[2] = biological target: HIV-1 Env (HXB2 strain) homotrimer with V549A in gp41 (HIV-1 (HXB2 strain))
[3] = biological target: HIV-1 Env (HXB2 strain) homotrimer with N656D in gp41 (HIV-1 (HXB2 strain))
[4] = biological target: HIV-1 Env (HXB2 strain) homotrimer with Q552R/N637K in gp41 (HIV-1 (HXB2 strain))

In the case of C-peptide T20, the fold resistance to T20 in inhibition of infection by pseudotyped HIV-1, L544S against wild type Env (HXB2) homotrimers (U87.CD4.CXCR4 cells) [1] is reported as 30 fold and the fold resistance to T20 in inhibition of infection by pseudotyped HIV-1, V549A against wild type Env (HXB2) homotrimers (U87.CD4.CXCR4 cells) [2] is reported as 50 fold.
With “5-Helix, mutant version with L556A/V570A in all three N-HR segments (from UniProt P04578 543-582; P04578 625-661; P04578 543-582; P04578 625-661; P04578 543-582) (designed binder)” the fold resistance to 5H (LAVA) in inhibition of infection by pseudotyped HIV-1, N656D against wild type Env (HXB2) homotrimers [3] was > 100 fold.
“C-peptide C37-KYI (from UniProt P04578 625-661)” was tested, and the IC50.1 (high potency phase, fraction f = 0.31) of C37-KYI inhibition of infection by pseudotyped HIV-1, two-site inhibition model (HOS-CXCR4+ cells) [4] was 8 nM and the IC50.2 (low potency phase, fraction 1 - f) of C37-KYI inhibition of infection by pseudotyped HIV-1, two-site inhibition model (HOS-CXCR4+ cells) [4] was 180 nM.

— publication PMC5222517
